Tests used:
At3g50210 (2-ODD-C23.1) = target: T1, At3g50210 (2-ODD-C23.1) (Arabidopsis thaliana, UniProt Q84MB6); assay: inhibition of homoarginine-dependent O2 consumption; type: biochemical; conditions: 0.5 mM 2-oxoglutarate, pH 7.2, 30 °C
T1 construct: gene 2ODDC23.1
T1 sequence (Q84MB6 1-332): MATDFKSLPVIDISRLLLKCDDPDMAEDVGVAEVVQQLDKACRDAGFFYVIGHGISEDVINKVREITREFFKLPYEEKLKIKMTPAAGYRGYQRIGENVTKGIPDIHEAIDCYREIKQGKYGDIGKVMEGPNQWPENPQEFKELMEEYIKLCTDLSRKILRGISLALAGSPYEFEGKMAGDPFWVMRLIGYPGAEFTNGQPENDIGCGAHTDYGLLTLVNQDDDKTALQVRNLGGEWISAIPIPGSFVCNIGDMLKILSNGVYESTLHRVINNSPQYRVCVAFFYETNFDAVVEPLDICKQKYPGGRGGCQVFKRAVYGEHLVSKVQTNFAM

[1] = target: T2, Din11s (2-ODD-C23.2, short variant of Din11) (Arabidopsis thaliana, UniProt Q8H113); assay: as above; type: biochemical; conditions: competitive versus homoarginine; 1 mM canavanine, 0.5 mM 2-oxoglutarate, pH 7.2, 30 °C
T2 construct: gene 2ODDC23.2
T2 sequence (Q8H113 26-357): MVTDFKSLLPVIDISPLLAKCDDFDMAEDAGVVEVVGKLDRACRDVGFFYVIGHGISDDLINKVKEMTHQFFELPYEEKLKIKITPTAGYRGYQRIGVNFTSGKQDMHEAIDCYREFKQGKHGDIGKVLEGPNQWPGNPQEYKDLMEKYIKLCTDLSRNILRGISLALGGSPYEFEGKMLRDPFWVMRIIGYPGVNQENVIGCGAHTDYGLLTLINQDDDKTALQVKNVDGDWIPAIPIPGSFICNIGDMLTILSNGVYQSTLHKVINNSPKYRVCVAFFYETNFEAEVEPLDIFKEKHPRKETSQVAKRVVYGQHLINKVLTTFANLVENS

[2] = target: T3, 2-ODD33 (Os2-ODD33, rice 2-ODD-C23 ortholog) (Oryza sativa, UniProt Q6K332); assay: guanidine production in expressing E. coli culture, LC-MS; type: cell-based; conditions: 1 mM homoarginine in medium, 18 °C overnight
T3 sequence (Q6K332 1-328): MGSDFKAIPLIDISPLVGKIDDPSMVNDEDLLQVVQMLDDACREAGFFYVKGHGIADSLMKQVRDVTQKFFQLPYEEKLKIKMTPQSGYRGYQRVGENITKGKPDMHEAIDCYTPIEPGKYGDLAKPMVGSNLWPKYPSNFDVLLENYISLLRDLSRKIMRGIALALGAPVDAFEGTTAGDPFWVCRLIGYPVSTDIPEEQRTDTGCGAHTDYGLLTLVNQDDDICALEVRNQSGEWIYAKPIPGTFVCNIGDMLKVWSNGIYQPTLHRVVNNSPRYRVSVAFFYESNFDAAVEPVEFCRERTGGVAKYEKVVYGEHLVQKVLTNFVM

[3] = target: T4, Gm2-ODD-C23 (soybean 2-ODD-C23) (Glycine max, UniProt A0A0R4J5R0); assay: as above; type: cell-based; conditions: 1 mM homoarginine in medium, 18 °C overnight
T4 construct: gene 2ODDC23
T4 sequence (A0A0R4J5R0 1-331): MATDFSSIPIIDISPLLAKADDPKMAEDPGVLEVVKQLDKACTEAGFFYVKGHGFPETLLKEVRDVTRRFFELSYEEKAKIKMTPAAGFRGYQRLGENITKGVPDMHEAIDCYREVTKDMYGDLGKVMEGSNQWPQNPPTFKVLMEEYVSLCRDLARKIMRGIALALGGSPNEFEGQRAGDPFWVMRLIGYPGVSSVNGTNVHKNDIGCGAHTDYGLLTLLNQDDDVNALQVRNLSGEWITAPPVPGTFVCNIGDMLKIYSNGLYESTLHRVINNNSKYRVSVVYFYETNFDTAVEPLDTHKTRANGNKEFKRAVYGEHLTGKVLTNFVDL

[4] = substrate: N=C(N)NCCCC[C@H](N)C(=O)O; assay: O2 consumption, Clark-type electrode; type: biochemical, Arabidopsis thaliana; conditions: 0.5 mM 2-oxoglutarate, Fe2+, ascorbate, pH 7.2, 30 °C
[5] = substrate: N=C(N)NCCC[C@H](N)C(=O)O; assay: O2 consumption, Clark-type electrode; type: biochemical, Arabidopsis thaliana; conditions: 0.5 mM 2-oxoglutarate, Fe2+, ascorbate, pH 7.2, 30 °C
[6] = substrate: O=C(O)[C@@H]1CCCC=N1; assay: NADH oxidation, spectrophotometric; type: biochemical, Oryza sativa; conditions: NADH as electron donor (fixed 1 mM), pH 7.5, 35 °C
[7] = substrate: N[C@@H](CCCC=O)C(=O)O; assay: NAD+ reduction, spectrophotometric; type: biochemical, Arabidopsis thaliana; conditions: 1 mM NAD+, pH 7.5, 35 °C, substrate is the AASA/P6C equilibrium mixture
[8] = substrate: NC(=O)c1ccc[n+]([C@@H]2O[C@H](COP(=O)(O)OP(=O)(O)OC[C@H]3O[C@@H](n4cnc5c(N)ncnc54)[C@H](O)[C@@H]3O)[C@@H](O)[C@H]2O)c1; assay: NAD+ reduction, spectrophotometric; type: biochemical, Arabidopsis thaliana; conditions: 1 mM AASA/P6C, pH 7.5, 35 °C, varied: cofactor

Question: For N=C(N)NCCC[C@H](N)C(=O)O [arginine], which “inhibition of homoarginine-dependent O2 consumption” value (At3g50210 (2-ODD-C23.1); competitive versus homoarginine, 1 mM arginine) is on record?
Answer: we detected a competitive inhibition of Din11s and At3g50210

Question: Which results are given for N=C(N)NOCC[C@H](N)C(=O)O [canavanine]?
Answer: inhibition of homoarginine-dependent O2 consumption [1]: canavanine showed competitive inhibition of the reaction of Din11s with homoarginine; inhibition of homoarginine-dependent O2 consumption (At3g50210 (2-ODD-C23.1); mixed type versus homoarginine, 1 mM canavanine): the inhibition of At3g50210 was of the mixed type

Question: N=C(N)NCCCC[C@H](N)C(=O)O [homoarginine] was tested. Which “guanidine production in expressing E. coli culture, LC-MS” value [2] did it give?
Answer: orthologs from soybean and rice (2-ODD33) mediated homoarginine-dependent guanidine accumulation

Question: And the “guanidine production in expressing E. coli culture, LC-MS” value [3]?
Answer: orthologs from soybean and rice (2-ODD33) mediated homoarginine-dependent guanidine accumulation

B1: At3g49630 (2-ODD-C23.3) (Arabidopsis thaliana) (protein)
chain: MATNFKSLLPVIDISPLVVKCDDANMAEDAGVAEVVGKLDRACRDAGFFYVIGHGISEDFIRKVRVMSHQFFELPYEEKLKIKITPAAGYRGYQRIGLNLTNGKQDMHEAIDCYKEFKQGKHGDIGKVMEGANQWPENPQEYKELMEEYIKLCIDLSRNILRGISLALGGSPYEFEGKMLTDPFWIMRILGYPGVNQENVIGCGAHTDYGLLSLINQDDDKTALQVRDLAGDWIPVIPIPGSFVCNIGDMLKILSNGVYESTLHRVINNSPRYRVCVGFFYETNFDAAVEPLDIFKEKYPGKGTSQVFKRVVYGEHLVHKLQTTFQNLVEHS
notes: b44 prints At3g49620, apparently a slip for At3g49630
Question: How did the Km [4] turn out when B1 was run?
Answer: 4600 ± 200 µM

B2: At3g50210 (2-ODD-C23.1) (Arabidopsis thaliana) (protein)
chain: MATDFKSLPVIDISRLLLKCDDPDMAEDVGVAEVVQQLDKACRDAGFFYVIGHGISEDVINKVREITREFFKLPYEEKLKIKMTPAAGYRGYQRIGENVTKGIPDIHEAIDCYREIKQGKYGDIGKVMEGPNQWPENPQEFKELMEEYIKLCTDLSRKILRGISLALAGSPYEFEGKMAGDPFWVMRLIGYPGAEFTNGQPENDIGCGAHTDYGLLTLVNQDDDKTALQVRNLGGEWISAIPIPGSFVCNIGDMLKILSNGVYESTLHRVINNSPQYRVCVAFFYETNFDAVVEPLDICKQKYPGGRGGCQVFKRAVYGEHLVSKVQTNFAM
Question: B2 was tested. Which Km [4] did it give?
Answer: 780 ± 150 µM

B3: Din11s (2-ODD-C23.2, short variant of Din11) (Arabidopsis thaliana) (protein)
chain: MVTDFKSLLPVIDISPLLAKCDDFDMAEDAGVVEVVGKLDRACRDVGFFYVIGHGISDDLINKVKEMTHQFFELPYEEKLKIKITPTAGYRGYQRIGVNFTSGKQDMHEAIDCYREFKQGKHGDIGKVLEGPNQWPGNPQEYKDLMEKYIKLCTDLSRNILRGISLALGGSPYEFEGKMLRDPFWVMRIIGYPGVNQENVIGCGAHTDYGLLTLINQDDDKTALQVKNVDGDWIPAIPIPGSFICNIGDMLTILSNGVYQSTLHKVINNSPKYRVCVAFFYETNFEAEVEPLDIFKEKHPRKETSQVAKRVVYGQHLINKVLTTFANLVENS
Question: How did the Km [4] turn out when B3 was run?
Answer: 1900 ± 300 µM

Question: And the Km [5]?
Answer: 6000 ± 5100 µM

B4: OsP5CR (pyrroline-5-carboxylate reductase from rice) (Oryza sativa Japonica Group) (protein)
chain: MAAPPQPVPAPAAASPEVFRLGFIGPGNLAESIARGVAASGVLPATAIRTAPHRRPERAEAFSSIGAHILETNAQVVDDSDVIVISVKPQIVRQVLVELKPLLSEEKLLVSIAAGIKMEDLQGWSGHRRFIRVMPNTPSAVGQAASVMCLGEMATENDENRVRSLFSAIGKVWTAEEKYFDAVTGLSGSGPAYIFLAIEAMADGGVAAGLPRDLALGLASQTVLGAATMVNKTGKHPGQLKDMVTSPAGTTITGIQELEKGAFRGTLINAVVAATKRCRELSQS
notes: recombinant, purified
Question: B4 was tested. Which Km [6] did it give?
Answer: 173 ± 18 µM

B5: AtALDH7B4 (At1g54100, AASA-DH) (Arabidopsis thaliana) (protein)
chain: MGSANNEYEFLSEIGLTSHNLGSYVAGKWQANGPLVSTLNPANNQPIAQVVEASLEDYEQGLKACEEAAKIWMQVTAPKRGDIVRQIGDALRSKLDYLGRLLSLEMGKILAEGIGEVQEVIDMCDFAVGLSRQLNGSVIPSERPNHMMLEMWNPLGIVGVITAFNFPCAVLGWNACIALVCGNCVVWKGAPTTPLITIAMTKLVAEVLEKNNLPGAIFTAMCGGAEIGEAIAKDTRIPLVSFTGSSRVGSMVQQTVNARSGKTLLELSGNNAIIVMDDADIQLAARSVLFAAVGTAGQRCTTCRRLLLHESVYDKVLEQLLTSYKQVKIGNPLEKGTLLGPLHTPESKKNFEKGIEVIKSQGGKILTGGKAVEGEGNFVEPTIIEISADAAVVKEELFAPVLYVLKFKSFGEAVAINNSVPQGLSSSIFTRNPENIFRWIGPLGSDCGIVNVNIPTNGAEIGGAFGGEKATGGGREAGSDSWKQYMRRSTCTINYGNELPLAQGINFG
Question: Which Km [7] does the source give for B5 here?
Answer: 11.9 ± 1.0 µM

Question: What about the Km [8] of the same molecule?
Answer: 324 ± 17 µM

Reference: PMC11018352, “Guanidine production by plant homoarginine-6-hydroxylases” (eLife, 2024)
